In this assay the target is human SEZ6-His (soluble hSEZ6-his antigen) (human) (UniProt Q53EL9). Briefly: SPR, Biacore T200, human SEZ6-His captured on anti-His chip, Fab as analyte. For orientation: Surface plasmon resonance follows binding to a sensor surface in real time, without labels.

As usually defined, the Kd is the free concentration of one partner at which half of the binding sites on the other are occupied at equilibrium, for simple one-to-one binding. Low values mean a tighter complex, high ones a looser complex. A word on the koff: it is a measure of how fast the partners let go of each other. A low value points to a long-lived complex. As usually defined, the kon is the second-order rate constant of association. Low values mean slow association, high ones fast association.

Sequence of UniProt Q53EL9 (Q53EL9 20-925): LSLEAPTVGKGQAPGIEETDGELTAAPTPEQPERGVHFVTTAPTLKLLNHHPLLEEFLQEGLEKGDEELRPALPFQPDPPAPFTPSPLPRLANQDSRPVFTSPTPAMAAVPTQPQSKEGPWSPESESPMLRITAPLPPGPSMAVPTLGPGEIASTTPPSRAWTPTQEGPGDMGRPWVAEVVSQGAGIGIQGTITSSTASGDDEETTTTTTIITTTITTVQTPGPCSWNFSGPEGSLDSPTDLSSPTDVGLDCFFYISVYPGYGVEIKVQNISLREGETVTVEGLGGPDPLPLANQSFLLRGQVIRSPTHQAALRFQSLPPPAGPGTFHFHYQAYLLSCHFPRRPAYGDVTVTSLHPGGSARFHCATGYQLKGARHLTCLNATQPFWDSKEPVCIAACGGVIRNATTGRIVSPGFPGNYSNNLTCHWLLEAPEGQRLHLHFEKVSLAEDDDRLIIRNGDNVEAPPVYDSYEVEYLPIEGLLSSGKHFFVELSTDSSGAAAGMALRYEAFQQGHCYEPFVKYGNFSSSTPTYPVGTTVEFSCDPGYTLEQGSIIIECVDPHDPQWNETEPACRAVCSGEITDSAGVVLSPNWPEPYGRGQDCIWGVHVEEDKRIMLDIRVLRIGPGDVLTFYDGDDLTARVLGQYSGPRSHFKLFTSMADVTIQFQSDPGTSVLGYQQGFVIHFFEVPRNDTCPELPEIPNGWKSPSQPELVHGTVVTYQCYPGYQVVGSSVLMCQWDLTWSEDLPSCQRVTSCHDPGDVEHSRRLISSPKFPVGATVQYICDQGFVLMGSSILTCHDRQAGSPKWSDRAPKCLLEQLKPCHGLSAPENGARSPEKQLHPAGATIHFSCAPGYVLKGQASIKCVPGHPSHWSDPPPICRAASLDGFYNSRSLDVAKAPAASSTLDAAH

B1: MutA (S60N) Fab (Fab construct of the hSEZ6-1.ss1 antibody with the S60N mutation) (Fab, V domains shown)
VH: EVQLVQSGAEVKKPGESLKISCKGSGYSFTSSWINWVRQMPGKGLEWMGRIYPGEGDTNYNGNFEGQVTISADKSISTAYLQWSSLKASDTAMYYCTRGLVMDYWGQGTLVTVSS
VL: EIVLTQSPATLSLSPGERATLSCRASQSVDYNGISYMHWYQQKPGQAPRLLIYAASNVQSGIPARFSGSGSGTDFTLTISSLEPEDFAVYYCQQSIEDPPTFGGGTKVEIK
B1: the Kd was 4.8 nM, the dissociation rate constant (koff) is 0.006 s⁻¹ and the on-rate constant (kon) came to 1.3e+06 M⁻¹ s⁻¹.

The values are drawn from patent US20210196834A1.
